Changes are numbered by the printed parent chain.
B1: MOR021433 (antibody, human IgG1, kappa, L234A L235A, V domains shown)
VH: QVQLVQSGAEVKKPGSSVKVSCKASGGTFSDYAISWVRQAPGQGLEWMGGIMPISGAPYYAQKFQGRVTITADESTSTAYMELSSLRSEDTAVYYCARDSSTSYYYYFDYWGQGTLVTVSS
VL: DIQMTQSPSSLSASVGDRVTITCRASQDINSWLAWYQQKPGKAPKLLIYQASNLQSGVPSRFSGSGSGTDFTLTISSLQPEDFATYYCQQIDHTPFTFGQGTKVEIKR
notes: also called MOR21433
B2: MOR021435 (antibody, human IgG1, kappa, L234A L235A, V domains shown)
VH: B1 VH with M52V, S55V, A57T, P58A, Y59N
VL: B1 VL with I91M, D92W, H93Q, T94F, F96I
notes: also called MOR21435
B3: MOR021468 (antibody, human IgG1, lambda, L234A L235A, V domains shown)
VH: QVQLLESGGGLVQPGGSLRLSCAASGFTFSDYALHWVRQAPGKGLEWVSVISYAGGFKFYADSVKGRFTISRDNSKNTLYLQMNSLRAEDTAVYYCARSPGLTSYHDSWGQGTLVTVSS
VL: DIVLTQPPSVSGAPGQRVTISCSGSSSNIGSNYVSWYQQLPGTAPKLLIHSNSHRPSGVPDRFSGSKSGTSASLAITGLQAEDEADYYCQSWDYESERVVFGGGTKLTVLG
notes: also called MOR21468
B4: MOR021453 (antibody, human IgG1, lambda, L234A L235A)
heavy: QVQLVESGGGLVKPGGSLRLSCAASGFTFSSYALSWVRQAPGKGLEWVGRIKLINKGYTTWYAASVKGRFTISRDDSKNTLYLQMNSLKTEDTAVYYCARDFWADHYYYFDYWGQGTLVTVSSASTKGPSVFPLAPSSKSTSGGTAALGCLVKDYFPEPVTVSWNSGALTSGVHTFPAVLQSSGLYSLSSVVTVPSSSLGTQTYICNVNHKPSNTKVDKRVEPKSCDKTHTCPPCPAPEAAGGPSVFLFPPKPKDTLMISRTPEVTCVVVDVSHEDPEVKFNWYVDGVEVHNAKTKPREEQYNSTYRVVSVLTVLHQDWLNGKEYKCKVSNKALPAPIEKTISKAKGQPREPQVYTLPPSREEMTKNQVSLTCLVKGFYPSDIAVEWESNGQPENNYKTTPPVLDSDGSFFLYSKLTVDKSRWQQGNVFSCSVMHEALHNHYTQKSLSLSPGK
light: DIALTQPASVSGSPGQSITISCTGTSSDVGYINYVNWYQQHPGKAPKLMIYEVSNRPSGVSNRFSGSKSGNTASLTISGLQAEDEADYYCASWDWYDNVVFGGGTKLTVLGQPKAAPSVTLFPPSSEELQANKATLVCLISDFYPGAVTVAWKADSSPVKAGVETTTPSKQSNNKYAASSYLSLTPEQWKSHRSYSCQVTHEGSTVEKTVAPTECS
notes: also called MOR21453
B5: MOR021452 (antibody, human IgG1, lambda, L234A L235A)
heavy: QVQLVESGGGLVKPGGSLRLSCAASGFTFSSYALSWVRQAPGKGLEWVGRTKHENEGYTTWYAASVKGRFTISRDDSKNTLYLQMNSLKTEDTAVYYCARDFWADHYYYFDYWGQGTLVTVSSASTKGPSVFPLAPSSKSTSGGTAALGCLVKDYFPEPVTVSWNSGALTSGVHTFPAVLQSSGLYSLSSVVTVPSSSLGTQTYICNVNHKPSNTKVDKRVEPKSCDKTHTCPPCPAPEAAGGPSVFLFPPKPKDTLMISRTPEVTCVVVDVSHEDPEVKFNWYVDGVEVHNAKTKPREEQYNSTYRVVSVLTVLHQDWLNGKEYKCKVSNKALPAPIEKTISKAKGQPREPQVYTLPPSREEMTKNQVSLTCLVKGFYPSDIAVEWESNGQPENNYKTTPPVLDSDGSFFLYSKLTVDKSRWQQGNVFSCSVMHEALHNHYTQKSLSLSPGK
light: B4 light
notes: also called MOR21452

Target: T1, APP-Avi-soluble human LOX-1(61-273) (human, UniProt P78380 61-273)
Assay: SET, IgG vs soluble human LOX-1
Experimental: (§1) Affinity determination for anti-LOX-1 IgGs using Solution Equilibrium Titration (SET) was basically performed as described in the literature (Friguet et al., 1985 J Immunol Methods 77: 305-319). The assays were performed in a 96-well polypropylene plate (Thermo Scientific, Catalog no. AB-1127) using a constant concentration of LOX-1 antibody mixed with different concentrations of non-biotinylated human or cynomolgus monkey LOX-1 protein and incubated at 22° C. for 14 hours with constant shaking (300 rpm).
(§2) On a pre-blocked MSD plate (Meso Scale Discovery, catalog no. L21SA) biotinylated human or cynomolgus monkey soluble LOX-1 protein was immobilized and washed afterwards. The equilibrium binding reactions were then applied to the MSD plate with immobilized LOX-1 and incubated for 30 min. The unbound material was removed by washing the plate, and the captured antibody was detected by adding Sulfo-tagged goat anti-human IgG (Meso Scale Discovery, catalog no. R3AJ-1). After incubation and washing 1×MSD read buffer T(Meso Scale Discovery, catalog no. R92TC-2) was added and the plate was developed using a Sector Imager 6000 (Meso Scale Discovery). The data were transferred to Excel for analysis and plotted using GraphPad Prism v5. The KD values were determined by fitting the data to the following equation: […]

| Binder | Kd |
| --- | --- |
| B1 | 3 pM |
| B2 | 5 pM |
| B3 | 0.6 pM |
| B4 | 4 pM |
| B5 | 10 pM |

Target: T1, APP-Avi-soluble human LOX-1(61-273)
Assay: competition ELISA: AGE-BSA binding to plate-bound biotinylated human sLOX-1
Experimental: Purified APP-Avi-soluble human soluble LOX-1(61-273) protein prepared as described in Example 1 was biotinylated as described in Example 5. NeutrAvidin 384 well plates were coated with 5 μg/ml biotinylated LOX-1 diluted in bicarbonate buffer (Thermo Scientific). After blocking with PBS/2% BSA/0.1% Tween20/0.1% TritonX-100, purified Fabs or IgGs diluted in PBS/2% BSA/0.1% Tween20/0.1% TritonX-100 were added. Subsequently AGE-BSA ligand (R&D Systems, #BT4127) diluted in PBS/2% BSA/0.1% Tween20/0.1% TritonX-100 was allowed to bind to coated LOX-1. Streptavidin-HRP (R&D Systems) diluted 1:200 in PBS/2% BSA/0.1% Tween20/0.1% TritonX-100 was added followed by addition of TMB substrate (Thermo Scientific). After 10 minutes 1M H₂SO₄ was added and absorbance was determined at 450 nm. Assay performance was affected by the type of BSA used for blocking and diluent solutions. For optimal assay performance, BSA from Sigma (catalog #A4503) was used.

| Binder | IC50 |
| --- | --- |
| B1 | 1400 pM |
| B2 | 1700 pM |
| B3 | 2400 pM |
| B4 | 1600 pM |
| B5 | 2200 pM |

Target: T1, APP-Avi-soluble human LOX-1(61-273)
Assay: competition ELISA: oxLDL binding to plate-bound biotinylated human sLOX-1
Experimental: NeutrAvidin 384 well plates were coated with 2.5 μg/ml biotinylated LOX-1 diluted in PBS. After blocking with 25% Block Ace (AbD Serotec, Cat#BUF029) in PBS, purified Fabs or IgGs diluted in PBS/1% BSA were added. Subsequently OxLDL (copper-sulfate oxidized LDL, Kalen Biomedical #770202) or MDA-LDL (Academy Biomedical, #20P-UMD-L102) ligand diluted in PBS/1% BSA were allowed to bind to coated LOX-1. Secondary antibody (HRP conjugated sheep anti ApoB IgG; The Binding Site) diluted 1:1,000 in PBS/1% BSA was added followed by addition of TMB substrate (Thermo Scientific). After 10 minutes 1M H2SO4 was added and absorbance was determined at 450 nm. During early screenings, Fab fragments were also tested in this oxLDL binding assay using Fab-containing crude E. coli lysates.
The ability of LOX-1 antibodies to inhibit oxLDL binding to LOX-1 protein was determined using the method described in Example 4. In addition to “high binding OxLDL” from Kalen Biomedical (catalog number 770212-7), which is generated by copper sulfate mediated oxidation of LDL, two other forms of modified LDL were tested in this assay: malondialdehyde modified LDL (Academy Bio-Medical Co. catalog number 20P-MD-L105) and hypochlorite modified LDL. Hypochlorite modified LDL was prepared according to the following procedure. Human LDL (Kalen Biomedical catalog number 770200-4) was diluted with PBS to a final concentration of 0.25 mg/mL. Sodium hypochlorite (NaOCI, JT Baker catalog number 9416-01) was then added to 0.1 mM final concentration. The solution was incubated at room temperate for 4 hours, then quenched by adding L-methionine to a final concentration of reaction by adding 5 μl of 100 mM Mehionine per 200 μl total volume.

| Binder | IC50 |
| --- | --- |
| B1 | 2900 pM |
| B2 | 2800 pM |
| B3 | 4800 pM |
| B4 | 2600 pM |
| B5 | 3200 pM |

Target: T1, APP-Avi-soluble human LOX-1(61-273)
Assay: SET, IgG vs soluble human LOX-1
Remark: another data set of the same source

| Binder | Kd |
| --- | --- |
| B1 | 2.5 pM |
| B2 | 6 pM |
| B3 | 0.65 pM |
| B4 | 4 pM |
| B5 | 7.5 pM |

Target: T2, APP-Avi-soluble cynomolgus monkey LOX-1(61-273) (cynomolgus monkey)
T2 construct: Non-biotinylated as titrated antigen in SET, biotinylated for capture on the plate; also called cyno sLOX-1; cynomolgus monkey soluble LOX-1
T2 sequence (chain, as listed by the source limits assumed): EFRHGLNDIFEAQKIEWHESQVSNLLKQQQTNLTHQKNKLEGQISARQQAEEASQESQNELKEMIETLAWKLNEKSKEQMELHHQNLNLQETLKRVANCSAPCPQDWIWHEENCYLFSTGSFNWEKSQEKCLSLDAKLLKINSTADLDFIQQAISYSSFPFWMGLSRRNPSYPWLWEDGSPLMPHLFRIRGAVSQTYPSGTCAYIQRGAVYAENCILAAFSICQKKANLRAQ
Assay: SET, IgG vs soluble cynomolgus LOX-1
Experimental: as §1, §2

| Binder | Kd |
| --- | --- |
| B1 | 4 pM |
| B2 | 5 pM |
| B3 | 0.5 pM |
| B4 | 7 pM |
| B5 | 7 pM |

Source: patent publication US20170260272A1 (Novartis, published 2017)
